This is an account of results in patent US20090181027A1 (published 2009).

The target of experiment [1] is IL-12 (mouse; target of the rat anti-mouse mAbs C17.8 and C18.2) (mouse) (UniProt P43432). In words: cell-based or functional assay.
Experiment [2] deals with T1, human p40 single mutant L40T (human, UniProt P29460 23-328).
T1 construct: Transiently expressed in HEK293E cells; supernatant used
T1 sequence: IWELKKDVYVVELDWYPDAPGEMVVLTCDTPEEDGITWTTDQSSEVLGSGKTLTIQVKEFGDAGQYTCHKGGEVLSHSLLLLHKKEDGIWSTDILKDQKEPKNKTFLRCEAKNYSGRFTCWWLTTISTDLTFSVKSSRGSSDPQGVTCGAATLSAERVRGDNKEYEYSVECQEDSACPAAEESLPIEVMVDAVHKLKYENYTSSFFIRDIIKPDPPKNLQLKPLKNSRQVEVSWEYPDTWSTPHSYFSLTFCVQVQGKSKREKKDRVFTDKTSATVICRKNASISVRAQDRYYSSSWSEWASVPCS
In words: capture assay, relative binding affinity to p40 muteins (FIG. 4). As for the experimental part:
(§1) Seven human p40 single mutants, M23T, L40T, S43R, E45A, E45R, E59R, and D62R, and two double mutants, S43R/E45A and S43R/E45R, are used in the studies. The wide-type human p40, WT hu-p40, was used as the control. The p40 mutants were transiently expressed in HEK293E cells. The supernatants were used for binding assays.
(§2) In brief, MSD high bind plates (Meso Scale Discovery, MD) were coated with 5 μl of a capture monoclonal antibody (5 μg/ml) at room temperature for 1 hour. […] One-hundred and fifty (150) μl of 5% MSD Blocker A buffer was added to each well and incubated for 1 hr at room temperature. Plates were washed three times with 0.1 M HEPES buffer (pH 7.4). These protein-charged ELISA plates were incubated with 25 μl of different transiently expressed p40 mutant supernatants (1:10 dilution with 0.1 M HEPES buffer, pH 7.4) for 1 hr at room temperature. The plates were washed three times with 0.1 M HEPES buffer (pH 7.4). Twenty-five (25) μl of different concentrations of MSD Sulfo-TAG labeled p40 mAb, ranging from 0 to 20 μg/ml, were dispensed to micro-wells. After incubation for 2 hrs shaking at room temperature, plates were washed 3 times with 0.1 M HEPES buffer (pH 7.4). One hundred and fifty (150) μl of diluted MSD Read Buffer T was dispensed into each well and the plates were analyzed with a SECTOR imager (MSD).

In experiment [3] the target is T2, human p40 single mutant S43R (human, UniProt P29460 23-328).
T2 construct: Transiently expressed in HEK293E cells; supernatant used
T2 sequence: T1 sequence with T40L, S43R
The description is as above. As for the experimental part:
as §1, §2

Experiment [4] addresses T3, human p40 single mutant M23T (human, UniProt P29460 23-328).
T3 construct: Transiently expressed in HEK293E cells; supernatant used
T3 sequence: T1 sequence with M23T, T40L
Described as above. The method, then:
as §1, §2

The target of experiment [5] is T4, human p40 single mutant E45A (human, UniProt P29460 23-328).
T4 construct: Transiently expressed in HEK293E cells; supernatant used
T4 sequence: T1 sequence with T40L, E45A
Described as above. As for the experimental part:
as §1, §2

Changes are numbered by the printed parent chain.

Chain of IL-12 (mouse; target of the rat anti-mouse mAbs C17.8 and C18.2) (mouse) (P43432 23-335 limits assumed, chain 1 of 2): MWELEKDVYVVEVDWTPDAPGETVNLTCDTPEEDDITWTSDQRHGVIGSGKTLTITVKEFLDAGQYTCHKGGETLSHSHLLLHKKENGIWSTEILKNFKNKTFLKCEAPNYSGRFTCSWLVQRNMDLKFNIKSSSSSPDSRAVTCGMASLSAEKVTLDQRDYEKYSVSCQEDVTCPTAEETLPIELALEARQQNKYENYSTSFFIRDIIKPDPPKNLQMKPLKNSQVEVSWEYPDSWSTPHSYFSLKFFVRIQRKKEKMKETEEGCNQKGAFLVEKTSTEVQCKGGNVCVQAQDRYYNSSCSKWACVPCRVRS
Chain of IL-12 (mouse; target of the rat anti-mouse mAbs C17.8 and C18.2) (mouse) (P43431 23-215 limits assumed, chain 2 of 2, further chain): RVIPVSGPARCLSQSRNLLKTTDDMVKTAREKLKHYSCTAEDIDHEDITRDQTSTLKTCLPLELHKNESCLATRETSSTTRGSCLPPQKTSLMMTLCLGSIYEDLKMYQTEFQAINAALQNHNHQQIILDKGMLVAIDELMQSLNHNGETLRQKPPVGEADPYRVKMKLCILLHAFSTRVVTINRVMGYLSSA

The molecule “C17.8 (rat anti-mouse IL-12/IL-23p40, IgG2a) (antibody)” registered an in vitro neutralization of IL-12, relative to the anti-p35 mAb (C18.2) (times (versus anti-p35 mAb)) in experiment [1] of 5.

B1: IL-12/IL-23p40 mAb (fully human monoclonal antibody directed against human IL-12/23p40) (antibody, V domains shown)
VH: EVQLVQSGAEVKKPGESLKISCKGSGYSFTTYWLGWVRQMPGKGLDWIGIMSPVDSDIRYSPSFQGQVTMSVDKSITTAYLQWNSLKASDTAMYYCARRRPGQGYFDFWGQGTLVTVSS
VL: DIQMTQSPSSLSASVGDRVTITCRASQGISSWLAWYQQKPEKAPKSLIYAASSLQSGVPSRFSGSGSGTDFTLTISSLQPEDFATYYCQQYNIYPYTFGQGTKLEIKR
notes: Whole IgG made in a mammalian cell line and purified on protein A; also called IL-12/23p40 mAb; IL-12p40 antibody
On to B1, for which the reduction of binding in experiment [2] was around 40%; in experiment [3], around 40%; in experiment [4], around 40%; in experiment [5], around 70%.
